Where two headings read alike, the source gives them in different places. Where no end group is shown, it is not given here. The star is where a group is joined. 5FAM = O=C1OC2(c3ccc(O)cc3Oc3cc(O)ccc32)c2ccc(C(=O)*)cc21
B1: unlabeled IRE1α_(Y358-L369) peptide, wild-type sequence (peptide)
peptide: YWLLIGHHETPL
B2: human IgG light chain variable domain (VL) peptide, 5-FAM labelled (peptide)
peptide: 5FAM-YLAWYQQKP
B3: IRE1α_(Y358-L369) peptide, 5-FAM labelled, wild-type sequence (peptide)
peptide: 5FAM-YWLLIGHHETPL
B4: CTxA_(I124-F132) peptide, 5-FAM labelled, wild-type sequence (peptide)
peptide: IYGWYRVHF
modifications: also: 5-FAM labelled, position not given here

How the values were obtained:
Test in all cases: […]
[1] = target: B4
His6-IRE1αLD [2] = target: T1, His6-IRE1αLD (human, UniProt O75460 24-443)
T1 sequence: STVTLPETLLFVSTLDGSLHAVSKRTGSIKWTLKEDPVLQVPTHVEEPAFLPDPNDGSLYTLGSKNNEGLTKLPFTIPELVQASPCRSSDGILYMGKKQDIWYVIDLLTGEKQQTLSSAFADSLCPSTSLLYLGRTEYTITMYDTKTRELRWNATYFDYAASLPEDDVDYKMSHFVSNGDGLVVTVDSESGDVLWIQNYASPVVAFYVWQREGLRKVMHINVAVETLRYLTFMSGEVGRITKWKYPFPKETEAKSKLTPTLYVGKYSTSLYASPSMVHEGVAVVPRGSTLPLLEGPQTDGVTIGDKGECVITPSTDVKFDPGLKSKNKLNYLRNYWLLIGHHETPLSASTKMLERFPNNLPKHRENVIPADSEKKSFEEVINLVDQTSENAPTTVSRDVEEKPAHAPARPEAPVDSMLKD

His6-IRE1αLD [3] = target: T1, His6-IRE1αLD; remark: listed apart in the source

Binder: B1
- fold weaker affinity than either peptide alone binding to IRE1αLD [1]: ≥ 10 fold
- binding result (His6-IRE1αLD [2]): binds

Binder: B2
- Kd (His6-IRE1αLD [3]): 219 mM

Binder: B3
- Kd (His6-IRE1αLD [3]): 0.24 mM

Binder: B4
- binding result (His6-IRE1αLD [3]): binds
